Source: US20210292396A1

Tests used:
Test in all cases: cell-based or functional assay
[1] = target: Env of HIV isolate CNE12 (clade B) (HIV)
[2] = target: Env of HIV isolate T280-5 (clade AG) (HIV)
[3] = target: HIV Env of isolate 3637.v5.c3 (HIV)
[4] = target: HIV Env of isolate X1632.S2.B10 (HIV)
[5] = target: Env of HIV isolate DU151.02 (clade C) (HIV)
[6] = target: Env of HIV isolate 928-28 (clade AG) (HIV)
[7] = target: Env of HIV isolate 5768.04 (clade B) (HIV)
[8] = target: Env of HIV isolate DU172.17 (clade C) (HIV)
[9] = target: Env of HIV isolate ADA.DG (clade B) (HIV)
[10] = target: HIV Env of isolate CE703010217.B6 (HIV)
[11] = target: Env of HIV isolate CNE58 (clade C in Table 7) (HIV)
[12] = target: Env of HIV isolate TH023.6 (clade AE) (HIV)
[13] = target: HIV Env of isolate ZM55.28a (HIV)
[14] = target: Env of HIV isolate 620345.c1 (clade AE) (HIV)
[15] = target: Env of HIV isolate MN.3 (clade B) (HIV)
[16] = target: HIV Env of isolate X1254.c3 (HIV)
[17] = target: Env of HIV isolate AC10.29 (clade B) (HIV)
[18] = target: Env of HIV isolate CH070.1 (clade BC) (HIV)
[19] = target: HIV Env of isolate UG024.2 (HIV)
[20] = target: Env of HIV isolate CNE55 (clade AE) (HIV)
[21] = target: HIV Env of isolate 3168.v4.c10 (HIV)
[22] = target: Env of HIV isolate 0260.v5.c36 (clade A) (HIV)
[23] = target: HIV Env of isolate 16055-2.3 (HIV)
[24] = target: Env of HIV isolate CNE56 (clade AE) (HIV)
[25] = target: Env of HIV isolate MS208.A1 (clade A) (HIV)
[26] = target: Env of HIV isolate 6322.v4.c1 (clade C) (HIV)
[27] = target: Env of HIV isolate 3873.v1.c24 (clade C) (HIV)
[28] = target: Env of HIV isolate Q461.e2 (clade AD) (HIV)
[29] = target: Env of HIV isolate Q259.17 (clade A) (HIV)
[30] = target: Env of HIV isolate ZM215.8 (clade C) (HIV)
[31] = target: Env of HIV isolate THRO.18 (clade B) (HIV)
[32] = target: HIV Env of isolate ZM233.6 (HIV)
[33] = target: HIV Env of isolate CNE19 (HIV)
[34] = target: Env of HIV isolate A07412M1.vrc12 (clade D) (HIV)
[35] = target: HIV Env of isolate 6322.v4.c1 (HIV)
[36] = target: Env of HIV isolate CNE4 (clade B) (HIV)
[37] = target: HIV Env of isolate CNE20 (HIV)
[38] = target: HIV Env of isolate ZM215.8 (HIV)
[39] = target: Env of HIV isolate BJOX002000.03.2 (clade BC) (HIV)
[40] = target: Env of HIV isolate UG024.2 (clade D) (HIV)
[41] = target: Env of HIV isolate Q842.d12 (clade A) (HIV)
[42] = target: Env of HIV isolate TRO.11 (clade B) (HIV)
[43] = target: Env of HIV isolate ZM55.28a (clade C) (HIV)
[44] = target: Env of HIV isolate 398-F1.F6.20 (clade A) (HIV)
[45] = target: Env of HIV isolate HT593.1 (clade B) (HIV)
[46] = target: Env of HIV isolate 6095.v1.c10 (clade ACD) (HIV)
[47] = target: HIV Env of isolate TZBD.02 (HIV)
[48] = target: HIV Env of isolate 6838.v1.c35 (HIV)
[49] = target: Env of HIV isolate 3718.v3.c11 (clade A) (HIV)
[50] = target: Env of HIV isolate 3016.v5.c45 (clade D) (HIV)

B1: ePGT121.15 (ePGT121.15.H6 VH and ePGT121.15.L1 VL) (antibody, V domains shown)
VH: QMQLQESGPGLVKPGETLSLTCSVSGASISSSYWSWLRETPGKGLEWIGYTHHSGDTNYAPSLKSRVHLGLHPSKNQVSLSLTSVTAADTAVYYCARTLHGRRIYGVVAFNEFFTYFYWEVWGKGTQVTVSS
VL: SDISVAPGETVRISCGGESIGSRAVQWYQHRAGQAPKLIIYNNQDRPPGIPERFSGSPDIDFGTTATLTITNVEAGDEATYYCHIWDSRRPTNWVFGGGTTLTVL
Which IC50, pseudovirus neutralization [1] does the source give for B1 here?
The IC50, pseudovirus neutralization was 0.003 mg/L.

And the IC50, pseudovirus neutralization [2]?
The IC50, pseudovirus neutralization was 0.004 mg/L.

And the IC80, pseudovirus neutralization [3]?
Its IC80, pseudovirus neutralization is greater than 50 mg/L.

What about the IC80, pseudovirus neutralization [4] of the same binder?
Its IC80, pseudovirus neutralization is greater than 50 mg/L.

And the IC50, pseudovirus neutralization [5]?
The IC50, pseudovirus neutralization was 0.002 mg/L.

What about the IC50, pseudovirus neutralization [6] of the same binder?
The IC50, pseudovirus neutralization was 0.161 mg/L.

And the IC50, pseudovirus neutralization [7]?
The IC50, pseudovirus neutralization was 0.028 mg/L.

And the IC50, pseudovirus neutralization [8]?
The IC50, pseudovirus neutralization was 0.003 mg/L.

And the IC50, pseudovirus neutralization [9]?
Its IC50, pseudovirus neutralization is 0.005 mg/L.

What about the IC80, pseudovirus neutralization [10] of the same binder?
The IC80, pseudovirus neutralization was 0.012 mg/L.

What about the IC50, pseudovirus neutralization [11] of the same binder?
The IC50, pseudovirus neutralization was 0.023 mg/L.

And the IC50, pseudovirus neutralization [12]?
The IC50, pseudovirus neutralization was greater than 50 mg/L.

What about the IC80, pseudovirus neutralization [13] of the same binder?
Its IC80, pseudovirus neutralization is 0.029 mg/L.

What about the IC50, pseudovirus neutralization [14] of the same binder?
The IC50, pseudovirus neutralization was greater than 50 mg/L.

What about the IC50, pseudovirus neutralization [15] of the same binder?
The IC50, pseudovirus neutralization was 0.004 mg/L.

And the IC80, pseudovirus neutralization [16]?
The IC80, pseudovirus neutralization was 0.009 mg/L.

And the IC50, pseudovirus neutralization [17]?
The IC50, pseudovirus neutralization was 0.002 mg/L.

And the IC50, pseudovirus neutralization [18]?
Its IC50, pseudovirus neutralization is 0.001 mg/L.

What about the IC80, pseudovirus neutralization [19] of the same binder?
Its IC80, pseudovirus neutralization is 4.72 mg/L.

And the IC50, pseudovirus neutralization [20]?
The IC50, pseudovirus neutralization was greater than 50 mg/L.

And the IC80, pseudovirus neutralization [21]?
The IC80, pseudovirus neutralization was 0.075 mg/L.

And the IC50, pseudovirus neutralization [22]?
Its IC50, pseudovirus neutralization is 0.004 mg/L.

What about the IC80, pseudovirus neutralization [23] of the same binder?
Its IC80, pseudovirus neutralization is 0.211 mg/L.

What about the IC50, pseudovirus neutralization [24] of the same binder?
The IC50, pseudovirus neutralization was greater than 50 mg/L.

What about the IC50, pseudovirus neutralization [25] of the same binder?
Its IC50, pseudovirus neutralization is greater than 50 mg/L.

What about the IC50, pseudovirus neutralization [26] of the same binder?
The IC50, pseudovirus neutralization was greater than 50 mg/L.

What about the IC50, pseudovirus neutralization [27] of the same binder?
The IC50, pseudovirus neutralization was 0.004 mg/L.

And the IC50, pseudovirus neutralization [28]?
The IC50, pseudovirus neutralization was greater than 50 mg/L.

And the IC50, pseudovirus neutralization [29]?
Its IC50, pseudovirus neutralization is greater than 50 mg/L.

What about the IC50, pseudovirus neutralization [30] of the same binder?
The IC50, pseudovirus neutralization was 0.017 mg/L.

And the IC50, pseudovirus neutralization [31]?
The IC50, pseudovirus neutralization was greater than 50 mg/L.

And the IC80, pseudovirus neutralization [32]?
Its IC80, pseudovirus neutralization is 0.073 mg/L.

What about the IC80, pseudovirus neutralization [33] of the same binder?
The IC80, pseudovirus neutralization was 0.03 mg/L.

And the IC50, pseudovirus neutralization [34]?
The IC50, pseudovirus neutralization was 0.005 mg/L.

What about the IC80, pseudovirus neutralization [35] of the same binder?
The IC80, pseudovirus neutralization was greater than 50 mg/L.

And the IC50, pseudovirus neutralization [36]?
The IC50, pseudovirus neutralization was 0.004 mg/L.

And the IC80, pseudovirus neutralization [37]?
Its IC80, pseudovirus neutralization is 0.005 mg/L.

And the IC80, pseudovirus neutralization [38]?
The IC80, pseudovirus neutralization was 0.047 mg/L.

What about the IC50, pseudovirus neutralization [39] of the same binder?
The IC50, pseudovirus neutralization was 0.003 mg/L.

And the IC50, pseudovirus neutralization [40]?
Its IC50, pseudovirus neutralization is 0.516 mg/L.

And the IC50, pseudovirus neutralization [41]?
The IC50, pseudovirus neutralization was 0.003 mg/L.

And the IC50, pseudovirus neutralization [42]?
The IC50, pseudovirus neutralization was 0.003 mg/L.

What about the IC50, pseudovirus neutralization [43] of the same binder?
Its IC50, pseudovirus neutralization is 0.009 mg/L.

What about the IC50, pseudovirus neutralization [44] of the same binder?
Its IC50, pseudovirus neutralization is 0.004 mg/L.

And the IC50, pseudovirus neutralization [45]?
Its IC50, pseudovirus neutralization is 0.008 mg/L.

And the IC50, pseudovirus neutralization [46]?
The IC50, pseudovirus neutralization was 0.019 mg/L.

And the IC80, pseudovirus neutralization [47]?
Its IC80, pseudovirus neutralization is 0.007 mg/L.

And the IC80, pseudovirus neutralization [48]?
Its IC80, pseudovirus neutralization is 1.34 mg/L.

And the IC50, pseudovirus neutralization [49]?
The IC50, pseudovirus neutralization was 0.489 mg/L.

What about the IC50, pseudovirus neutralization [50] of the same binder?
Its IC50, pseudovirus neutralization is greater than 50 mg/L.
